Data from patent US20150010495A1.

Target: […]n, n = 5 (100-mer), non-glycosylated (human)
Assay: peptide ELISA, OD 492 nm; limit of the class, member by Table 2; reference: 20-mer

Chain of […]n, n = 5 (100-mer), non-glycosylated (human) (peptide, as listed by the source): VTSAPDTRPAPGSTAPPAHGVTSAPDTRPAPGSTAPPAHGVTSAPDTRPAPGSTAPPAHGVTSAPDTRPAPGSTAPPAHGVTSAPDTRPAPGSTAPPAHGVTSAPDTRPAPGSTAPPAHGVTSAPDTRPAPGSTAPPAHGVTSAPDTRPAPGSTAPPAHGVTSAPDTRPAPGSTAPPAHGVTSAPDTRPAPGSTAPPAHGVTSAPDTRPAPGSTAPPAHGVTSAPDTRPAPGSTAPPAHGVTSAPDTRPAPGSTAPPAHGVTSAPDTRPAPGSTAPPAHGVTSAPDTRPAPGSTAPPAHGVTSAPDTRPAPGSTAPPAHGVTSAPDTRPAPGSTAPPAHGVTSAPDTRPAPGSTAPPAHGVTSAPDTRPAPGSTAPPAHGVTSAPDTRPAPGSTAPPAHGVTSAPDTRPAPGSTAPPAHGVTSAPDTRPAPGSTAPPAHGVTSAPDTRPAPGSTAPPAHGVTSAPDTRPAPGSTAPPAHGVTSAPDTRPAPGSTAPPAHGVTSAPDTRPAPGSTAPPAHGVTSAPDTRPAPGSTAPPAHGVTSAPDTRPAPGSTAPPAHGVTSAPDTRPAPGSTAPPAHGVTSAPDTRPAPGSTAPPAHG

ratio of the optical density 100-mer/20-mer	Substance
> 3	BC2 (antibody)
1.5 to 3	E29 (antibody)
< 1.5	C595 (antibody)

Continued, substance first:

Substance	ratio of the optical density 100-mer/20-mer
B27.29 (antibody)	1.5 to 3
214D4 (antibody)	1.5 to 3
